Data published in publication PMC2111050, “Human RECQ1 Is a DNA Damage Responsive Protein Required for Genotoxic Stress Resistance and Suppression of Sister Chromatid Exchanges” (PLoS ONE, 2007).

Target: T1, Recombinant human RECQ1 helicase (human, UniProt P46063 1-649)
T1 construct: RECQ1 (RECQL) helicase, human; the gene encodes a 649 amino acid protein of 73 kDa; also called RECQL
T1 sequence (looked up): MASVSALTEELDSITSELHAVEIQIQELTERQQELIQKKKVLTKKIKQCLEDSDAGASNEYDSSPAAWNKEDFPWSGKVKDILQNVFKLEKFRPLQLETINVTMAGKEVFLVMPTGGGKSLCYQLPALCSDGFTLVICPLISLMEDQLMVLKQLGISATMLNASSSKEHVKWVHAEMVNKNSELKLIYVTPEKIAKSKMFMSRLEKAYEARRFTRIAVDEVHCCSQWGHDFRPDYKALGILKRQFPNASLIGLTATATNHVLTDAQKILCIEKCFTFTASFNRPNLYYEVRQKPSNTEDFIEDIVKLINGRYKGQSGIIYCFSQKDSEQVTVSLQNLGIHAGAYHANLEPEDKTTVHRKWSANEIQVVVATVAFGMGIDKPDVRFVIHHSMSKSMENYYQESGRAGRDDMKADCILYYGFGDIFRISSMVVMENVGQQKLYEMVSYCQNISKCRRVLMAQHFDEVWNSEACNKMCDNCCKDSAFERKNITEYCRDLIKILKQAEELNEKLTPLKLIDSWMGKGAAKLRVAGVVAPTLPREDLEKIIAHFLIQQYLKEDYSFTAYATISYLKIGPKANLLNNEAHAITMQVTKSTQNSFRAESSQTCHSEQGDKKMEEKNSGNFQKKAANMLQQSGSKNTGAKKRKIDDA
Assay: ELISA; RECQ1 (14 nM; 1 ng/µl, 50 µl) or BSA coated on wells in carbonate buffer pH 9.6; Rad51 0-76 nM in PBS, 0.5% Tween-20, 3% BSA, 1 h at 30°C; detected with rabbit anti-Rad51; Scatchard analysis, apparent Kd; similar signal with DNaseI (100 U/ml) or EtBr (50 µg/ml)
Details: both partners purified

B1: Purified recombinant human Rad51 (natural protein, UniProt Q06609 1-339, looked up)
chain: MAMQMQLEANADTSVEEESFGPQPISRLEQCGINANDVKKLEEAGFHTVEAVAYAPKKELINIKGISEAKADKILAEAAKLVPMGFTTATEFHQRRSEIIQITTGSKELDKLLQGGIETGSITEMFGEFRTGKTQICHTLAVTCQLPIDRGGGEGKAMYIDTEGTFRPERLLAVAERYGLSGSDVLDNVAYARAFNTDHQTQLLYQASAMMVESRYALLIVDSATALYRTDYSGRGELSARQMHLARFLRMLLRLADEFGVAVVITNQVVAQVDGAAMFAADPKKPIGGNIIAHASTTRLYLRKGRGETRICKIYDSPCLPEAEAMFAINADGVGDAKD
notes: Rad51 strand exchange protein, human; source: provided by Dr. Ian Hickson (Cancer Research UK Laboratories); purified recombinant
Q: How did the Kd turn out when B1 was run?
A: 11.9 ± 2.1 nM
